The term Kd denotes the equilibrium constant for the complex coming apart. Low readings indicate higher affinity, high ones lower affinity. What is called koff is a measure of how fast the partners let go of each other. A high value points to a short-lived complex. One may read the kon as a measure of how fast the partners come together.

The source of these data is patent US20120219551A1.

Assay [1] addresses FcγRIIB, soluble dimeric protein (extracellular domain fused to the hinge-CH2-CH3 domain of human IgG2) (human) (UniProt P31994). The assay is described as follows: ELISA.
The target in assay [2] is soluble monomeric FcγRIIIA 158V (extracellular region joined to linker-AVITAG) (human) (UniProt P08637). The assay is described as follows: SPR (BIAcore), Fc mutant in ch4-4-20, off rate relative to wild type.
Assay [3] addresses soluble dimeric FcγRIIB-Fc fusion protein (extracellular domain of FcγRIIB fused to hinge-CH2-CH3 of human IgG2) (human) (UniProt P31994). Described as above.
Assay [4] has as its target FcγRIIIA on natural killer cells of human donor PBMC (human) (UniProt P08637). The assay is described as follows: cell-based or functional assay.
In assay [5] the target is soluble monomeric FcγRIIIA (extracellular region of FcγRIIIA joined to the linker-AVITAG sequence) (human) (UniProt P08637). The assay is described as follows: ELISA. A general note: An ELISA detects its analyte on a solid surface through an enzyme-linked reagent.
For assay [6], the target named is soluble dimeric FcγRIIB-Fc fusion protein (extracellular domain of FcγRIIB fused to hinge-CH2-CH3 of human IgG2) (human) (UniProt P31994). As to the kind of experiment: ELISA.
The target is the same in assay [7]. The assay is described as follows: SPR (BIAcore), Ab captured on BSA-FITC, separate fit 200/800 nM.
The target in assay [8] is soluble monomeric FcγRIIIA (extracellular region of FcγRIIIA joined to the linker-AVITAG sequence) (human) (UniProt P08637). The assay is described as above.
The target of assay [9] is FcγRIIIA (CD16A), V158 allotype (human) (UniProt P08637). The assay is described as follows: BIAcore (as Table 27). In general terms: In SPR one partner is held on a chip, and binding of the other changes the refractive index at the surface.
The target of assay [10] is FcγRIIB (CD32B) (human) (UniProt P31994). The assay is described as follows: BIAcore (as Table 27).
Assay [11] deals with FcγRIIIA (CD16A), F158 allotype (human) (UniProt P08637). As to the kind of experiment: BIAcore (as Table 27).
The target in assay [12] is FcγRIIIA (CD16A), V158 allotype (human) (UniProt P08637). The assay is described as follows: BIAcore.
The target in assay [13] is FcγRIIB (CD32B) (human) (UniProt P31994). As to the kind of experiment: BIAcore.
The target of assay [14] is FcγRIIA (CD32A), H131 allotype (human) (UniProt P12318). The assay is described as follows: BIAcore.
Assay [15] concerns the target FcγRIIIA (CD16A), F158 allotype (human) (UniProt P08637). As to the kind of experiment: BIAcore.
Assay [16] has as its target FcγRIIIA (CD16A), V158 allotype (human) (UniProt P08637). The assay is described as follows: not stated; human FcRs.
Assay [17] addresses FcγRIIB (CD32B) (human) (UniProt P31994). The assay is described as follows: not stated; human FcRs.
Assay [18] has as its target FcγRIIA (CD32A), H131 allotype (human) (UniProt P12318). As to the kind of experiment: not stated; human FcRs.
Assay [19] concerns the target FcγRIIIA (CD16A), F158 allotype (human) (UniProt P08637). As to the kind of experiment: not stated; human FcRs.

soluble monomeric FcγRIIIA (extracellular region of FcγRIIIA joined to the linker-AVITAG sequence) (human), sequence (P08637 17-208): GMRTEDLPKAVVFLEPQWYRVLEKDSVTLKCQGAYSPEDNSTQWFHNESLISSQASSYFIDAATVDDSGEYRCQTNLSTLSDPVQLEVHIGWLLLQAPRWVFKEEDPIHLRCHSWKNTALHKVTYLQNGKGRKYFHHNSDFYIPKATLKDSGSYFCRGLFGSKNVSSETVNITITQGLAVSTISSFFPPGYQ
FcγRIIIA (CD16A), F158 allotype (human), sequence (P08637 17-208 limits assumed): as the sequence (P08637 17-208) above
FcγRIIIA on natural killer cells of human donor PBMC (human), sequence (P08637 17-254): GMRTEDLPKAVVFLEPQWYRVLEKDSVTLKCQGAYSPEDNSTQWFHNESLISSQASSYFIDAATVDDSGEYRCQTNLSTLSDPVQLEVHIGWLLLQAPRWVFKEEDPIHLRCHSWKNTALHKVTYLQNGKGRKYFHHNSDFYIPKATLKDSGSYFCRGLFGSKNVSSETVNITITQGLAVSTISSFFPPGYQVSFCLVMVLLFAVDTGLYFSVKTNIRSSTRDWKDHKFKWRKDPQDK
FcγRIIIA (CD16A), V158 allotype (human), sequence (P08637 17-208 F176V limits assumed): as the sequence (P08637 17-208) above, with F160V counted along it
soluble monomeric FcγRIIIA 158V (extracellular region joined to linker-AVITAG) (human), sequence (P08637 17-208 F176V): as the sequence (P08637 17-208) above, with F160V counted along it
FcγRIIA (CD32A), H131 allotype (human), sequence (P12318 34-217 limits assumed): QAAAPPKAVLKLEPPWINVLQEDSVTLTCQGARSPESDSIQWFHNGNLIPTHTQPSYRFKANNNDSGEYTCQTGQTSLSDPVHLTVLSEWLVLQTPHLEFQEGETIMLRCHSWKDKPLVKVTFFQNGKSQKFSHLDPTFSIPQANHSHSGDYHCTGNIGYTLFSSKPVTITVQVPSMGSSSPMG
FcγRIIB (CD32B) (human), sequence (P31994 43-217 limits assumed): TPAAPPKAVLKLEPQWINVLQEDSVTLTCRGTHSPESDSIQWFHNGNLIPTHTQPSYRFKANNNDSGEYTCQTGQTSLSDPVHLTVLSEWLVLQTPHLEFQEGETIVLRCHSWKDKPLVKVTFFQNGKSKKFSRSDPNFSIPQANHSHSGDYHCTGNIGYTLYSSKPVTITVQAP
soluble dimeric FcγRIIB-Fc fusion protein (extracellular domain of FcγRIIB fused to hinge-CH2-CH3 of human IgG2) (human), sequence (P31994 43-217): as the sequence (P31994 43-217 limits assumed) above
FcγRIIB, soluble dimeric protein (extracellular domain fused to the hinge-CH2-CH3 domain of human IgG2) (human), sequence (P31994 43-217): as the sequence (P31994 43-217 limits assumed) above

With “Fc variant D221Y, M252I, A330G, A339T, T359N, V422I, H433L (antibody)”, in assay [1], the fold change vs WT stood at 6 fold.
On to “Fc variant D399E, R292L, V185M (antibody)”, for which, in [1], the fold change vs WT amounted to 0.5 fold.
ch4-4-20 MgFc37 (K248M) (antibody): the figures for the Koff WT/Mut in assay [2] and in [3] were 0.977 and 1.03, respectively. This substance yielded a Relative rate of lysis (ADCC, vs wild type ch4-4-20) in assay [4] of 3.83.
On the same counts, the results for “ch4-4-20 MgFc38 (K392T, P396L) (antibody)” are 1.64, 2.3 and 3.07.
“ch4-4-20 MgFc39 (E293V, Q295E, A327T) (antibody)”: the Koff WT/Mut in [2] worked out at 0.86; in assay [3], 1.3. In assay [4], this substance yielded a Relative rate of lysis (ADCC, vs wild type ch4-4-20) of 4.29.
In the case of “ch4-4-20 MgFc41 (H268N, P396L) (antibody)”, the figures for the Koff WT/Mut in [2] and in [3] were 0.92 and 1.04, respectively. For the same substance, in assay [4], the Relative rate of lysis (ADCC, vs wild type ch4-4-20) was found to be 2.24.
As for “ch4-4-20 MgFc43 (Y319F, P352L, P396L) (antibody)”, the Koff WT/Mut in assay [2] is 1.23; in [3] it was 2.29. Further, the Relative rate of lysis (ADCC, vs wild type ch4-4-20) in assay [4] is 1.09.
As for “ch4-4-20 MgFc43b (K288R, T307A, K344E, P396L) (antibody)”, the results for the Koff WT/Mut in assay [2] and in [3] were 1.27 and 0.89, respectively. The substance also displayed a Relative rate of lysis (ADCC, vs wild type ch4-4-20) in assay [4] of 3.3.
As for “ch4-4-20 MgFc49 (K261N, K210M, P396L) (antibody)”, the Koff WT/Mut in [2] amounted to 1.29; in [3], 0.85. In assay [4], the Relative rate of lysis (ADCC, vs wild type ch4-4-20) was 2.06.
In assay [3], ch4-4-20 MgFc61 (A330V) (antibody) returned a Koff WT/Mut of 0.61.
The same measure, in the same setting: in the case of ch4-4-20 MgFc62 (R292G) (antibody) it was 0.67; in that of “ch4-4-20 MgFc63 (S298N, K360R, N361D) (antibody)”, 0.67.
On the same count and under the same terms, in the case of ch4-4-20 MgFc64 (E233G) (antibody) it was 0.54; in that of ch4-4-20 MgFc65 (N276Y) (antibody), 0.64.
In the case of “ch4-4-20 Mut10 (P396L, A330S, K288N) (antibody)”, the ELISA, OD in [5] came out at 1 OD; in [6] it was 1.2 OD. The same substance gave a Kd in [7] of 41.3 nM. For the same substance, the ADCC, % in assay [4] came to 41%.
As to “ch4-4-20 Mut14 (K288M, K334E) (antibody)”, the ELISA, OD in assay [5] was determined as 1.1 OD. The substance also came in with an ELISA, OD in assay [6] of 0.13 OD. Moreover, in assay [8], the Kd was 75.4 nM, the koff worked out at 0.1 s⁻¹ and the kon was found to be 1.37e+06 M⁻¹ s⁻¹. In assay [7], the Kd was determined as 95.6 nM and the koff is 0.089 s⁻¹. This substance yielded an ADCC, % in [4] of 28%.
With ch4-4-20 Mut16 (F372Y) (antibody), the ELISA, OD in assay [5] is 1 OD; in assay [6], 1.55 OD. In [8], this substance gave a Kd of 84.8 nM. Moreover, the ADCC, % in [4] came to 15%.
On to ch4-4-20 Mut18 (K326E) (antibody), for which the ELISA, OD in assay [5] came out at 1 OD. In assay [6], the ELISA, OD stood at 1.25 OD. In [8], this substance displayed a Kd of 92 nM, a koff of 0.112 s⁻¹ and an association rate constant (kon) of 1.23e+06 M⁻¹ s⁻¹. Further, in assay [7], the Kd came to 51.7 nM and the dissociation rate constant (koff) turned out to be 0.043 s⁻¹. In assay [4], this substance showed an ADCC, % of 28%.
Regarding “ch4-4-20 Mut19 (K334N, K246I) (antibody)”, the ELISA, OD in assay [5] was 0.75 OD. Also, the equilibrium dissociation constant (Kd) in assay [7] was found to be 45.3 nM. In addition, the ADCC, % in [4] is 11%.
On to “ch4-4-20 Mut23 (K334E, R292L) (antibody)”, for which, in assay [5], the ELISA, OD was 1.25 OD. For the same substance, in [6], the ELISA, OD was found to be 0.1 OD. In [8], this substance had a dissociation constant Kd of 70.2 nM, a koff of 0.105 s⁻¹ and an on-rate (kon) of 1.43e+06 M⁻¹ s⁻¹. In assay [7], this substance yielded a Kd of 108 nM and a koff of 0.107 s⁻¹. Also, in assay [4], the ADCC, % came to 25%.
Turning to “immunoglobulin with Fc variant D270E, G316D, R416G (antibody)”, the Koff WT/Koff mutant in assay [9] amounted to 2.18; in [10] it was 0.78; in assay [11] it was 2.49; in assay [12] it was 2.18; in assay [13], 0.78; in assay [14], 1.95. The Koff WT/Koff mutant in assay [15] is 2.49. Moreover, the fold change vs wild-type affinity in assay [16] was 0.4 fold; in assay [17], -1.7 fold; in [18], 0.4 fold; in [19], 0.1 fold.
Take “immunoglobulin with Fc variant D270E, K392T, P396L (antibody)”: the fold change vs wild-type affinity in [16] was 0.8 fold; in assay [17], -0.3 fold; in assay [18], 0.9 fold.
For “immunoglobulin with Fc variant F243L, R292P, P396L (antibody)”, the fold change vs wild-type affinity in assay [16] was 5.3 fold; in assay [17], -1.6 fold; in assay [18], 0.4 fold; in [19] it was 2.4 fold.
As for “immunoglobulin with Fc variant F243L, R292P, V305I (antibody)”, the Koff WT/Koff mutant in assay [9] came out at 2.56; in assay [11], 1.43; in assay [12], 2.56; in [14] it was 0.23; in [15], 1.43. For the same substance, the fold change vs wild-type affinity is 1.6 fold in [16], -13.3 fold in assay [17], -3.3 fold in [18] and 0.4 fold in assay [19].
Turning to “immunoglobulin with Fc variant F243L, R292P, V305I, P396L (antibody)”, the results for the fold change vs wild-type affinity in [16], in [17] and in assay [18] were -3 fold, -1.6 fold and -0.3 fold, respectively.
On the same counts, the results for “immunoglobulin with Fc variant P247L, D270E, N421K (antibody)” are 0.9 fold, -0.7 fold and 1 fold.
As for “immunoglobulin with Fc variant P396L (antibody)”, the Koff WT/Koff mutant in assay [9] turned out to be 1.27; in [10], 2.58; in assay [11], 1.73; in [12], 1.27; in [13] it was 2.58; in assay [14], 1.63. Moreover, the Koff WT/Koff mutant in assay [15] was 1.73. Moreover, the fold change vs wild-type affinity in assay [16] was determined as 0.3 fold; in assay [17] it was 1.6 fold; in assay [18], 0.6 fold; in assay [19], 0.7 fold.
In the case of “immunoglobulin with Fc variant R255L, D270E, P396L (antibody)”, the fold change vs wild-type affinity is 0.3 fold in assay [16], -0.1 fold in [17] and 0.7 fold in assay [19].
As to “immunoglobulin with Fc variant R292P (antibody)”, the figures for the fold change vs wild-type affinity in [17], in assay [18] and in [19] were -2.7 fold, -0.5 fold and 0.6 fold, respectively.
As to “immunoglobulin with Fc variant S239D, A330L, I332E (control XmAb) (antibody)”, the fold change vs wild-type affinity was found to be 13.9 fold in [16], 0.74 fold in assay [17], 0 fold in [18] and 8.1 fold in assay [19].
With “immunoglobulin with Fc variant S298A, E333A, K334A (control AAA) (antibody)”, the fold change vs wild-type affinity in [16] is 0.6 fold; in assay [17] it was -2.5 fold; in assay [18] it was -3.3 fold; in [19] it was 0.1 fold.
In the case of “immunoglobulin with Fc variant Y300L (antibody)”, the Koff WT/Koff mutant was found to be 1.01 in [9]; 1.18 in [10]; 1.01 in assay [12]; 1.18 in assay [13]; 1.86 in assay [14]; 1.17 in assay [15]. In addition, the fold change vs wild-type affinity was 0 fold in assay [16], 0.2 fold in assay [17], 1.9 fold in assay [18] and 0.2 fold in assay [19].
